Results: patent publication EP2155781B1
No end group written: not given here.

Legend:
[1] = molecular target: adrenomedullin receptors in the lungs of dogs (binding profile of the AM1 receptor, CRLR+RAMP2) (dog); test: cell-based or functional assay
[2] = molecular target: adrenomedullin receptors in the lungs of dogs (binding profile of the AM1 receptor, CRLR+RAMP2) (dog); test: displacement of iodine-marked hAM in dog lungs

Molecule	IC50 [2]	other results
125I-rAM(1-50), 125I labelled rat adrenomedullin (from UniProt P43145 94-143) (peptide)	–	mean single-pass pulmonary extraction of 125I-rAM(1-50) in dogs in vivo (indicator dilution), baseline [1]: 36.4%
CGRP (Phoenix Pharmaceuticals) (peptide)	–	mean single-pass pulmonary extraction of 125I-rAM(1-50) in dogs after CGRP (100 nmol) [1]: 40.6%; mean single-pass pulmonary extraction of 125I-rAM(1-50) in dogs, control before CGRP [1]: 44.6%
hCGRP (from UniProt P06881 83-119) (peptide)	440 nM	–
unlabelled rAM(1-50) (from UniProt P43145 94-143) (peptide)	–	mean single-pass pulmonary extraction of 125I-rAM(1-50) in dogs after administration of unlabelled rAM(1-50) (100 nmol) [1]: 21.9%
QVQNLSHRLWQLMGPAGRQDSAPVDPSSPHSY (peptide, UniProt Q7Z4H4 116-147, looked up, ends and bridges not checked) [hAM2(16-47)]	980 nM	–
TQAQLLRVGCVLGTCQVQNLSHRLWQLMGPAGRQDSAPVDPSSPHSY (peptide, UniProt Q7Z4H4 101-147, looked up) [hAM2]	480 nM	–
TVQKLAHQIYQFTDKDKDNVAPRSKISPQGY-NH2 [hAM(22-52)]	810 nM	mean single-pass pulmonary extraction of 125I-rAM(1-50) in dogs after hAM(22-52) (100 nmol) [1]: 31.4%; mean single-pass pulmonary extraction of 125I-rAM(1-50) in dogs before hAM(22-52) [1]: 40%

More lines, in order of falling IC50 [2], values ahead:

IC50 [2]	Molecule	other results
34 nM	SFGCRFGTCTVQKLAHQIYQFTDKDKDNVAPRSKISPQGY-NH2 (ends and bridges not checked) [hAM(13-52)]	–
7.1 nM	linear human adrenomedullin hAM(1-52) (peptide)	–
0.055 nM	human adrenomedullin hAM(1-52), cyclic (peptide)	–
0.041 nM	N-terminal acetylated human adrenomedullin (peptide)	–
